Tests used:
[1] = target: mLANA_(140–272), C-terminal DNA-binding domain of murine gammaherpesvirus 68 latency-associated nuclear antigen (murine gammaherpesvirus 68 (MHV-68)); experiment: SEC; purified mLANA DBD truncations analysed by size exclusion chromatography; oligomeric state from the elution volume
[2] = target: mLANA_(140–314) (murine gammaherpesvirus 68 (MHV-68)); experiment: as above
[3] = system: mLANA124-272 WT (Murine gammaherpesvirus 68 (MHV-68, MuHV-4)); experiment: SPR; settings: 5' biotin with TTTTT spacer; EMSA: 20 mM Tris-HCl pH 7.5, 50 mM KCl, 10 mM MgCl2, 1 mM EDTA, 20 ug/mL poly(dI-dC), 0.1 mM DTT, 10% glycerol, RT; ITC: 25 mM Na/K phosphate pH 7.0, 150 mM …
[4] = system: mLANA124-314 WT (Murine gammaherpesvirus 68 (MHV-68, MuHV-4)); experiment: ITC; settings: EMSA: 20 mM Tris-HCl pH 7.5, 50 mM KCl, 10 mM MgCl2, 1 mM EDTA, 20 ug/mL poly(dI-dC), 0.1 mM DTT, 10% glycerol, RT; ITC: 25 mM Na/K phosphate pH 7.0, 150 mM …

Substance: mLANA_(140–272), C-terminal DNA-binding domain of murine gammaherpesvirus 68 latency-associated nuclear antigen (domain or fragment)
- stoichiometry N [1]: 2

Substance: mLANA_(140–314) (domain or fragment)
- stoichiometry N [2]: 4

Substance: mLBS1 SPR ligand (biotin-TTTTT-mLBS1)
- Kd [3]: 169 nM

Substance: mLBS1 for ITC and SEC (no spacer)
- Kd [4]: 66 nM
